Measurements from article PMC6286126, “A novel pathway of LPS uptake through syndecan-1 leading to pyroptotic cell death” (eLife, 2018).

Target: the molecule itself
Assay: native gel or EMSA; human SCGB3A2 10 µg on 0.8% agarose gel in TAE, Coomassie Brilliant Blue staining of the gel

B1: recombinant human SCGB3A2 (C1) (natural protein, UniProt Q96PL1 22-93, looked up)
chain: FLINKVPLPVDKLAPLPLDNILPFMDPLKLLLKTLGISVEHLVEGLRKCVNELGPEASEAVKKLLEALSHLV
notes: recombinant human SCGB3A2, lot C1; also called hS2; source: recombinant; in house (APCBio Innovations), Cai et al., 2014
binding result: binds
